PMC4686757

B1: E2F8 SELEX-preferred site GGCGGG (dsDNA)
DNA 1: TTTTTGGCGGGAAAA
DNA 2: TTTTCCCGCCAAAAA
B2: canonical symmetrical E2F site GCGCGCC (dsDNA)
DNA 1: CTTTTGCGCGCCAAAG
DNA 2: CTTTGGCGCGCAAAAG

Tests used:
E2F8 DBD1-DBD2 [1] = biological target: T1, E2F8 DBD1-DBD2 (human, UniProt A0AVK6 110-350); experiment: ITC; 20 C; ITC: 20 mM HEPES pH 7.5, 150 mM NaCl, 5% glycerol, TCEP (printed 0.5 M), 20 C; 0.1 mM protein into 0.012-0.016 mM DNA
E2F8 DBD1-DBD2 [2] = biological target: T1, E2F8 DBD1-DBD2; experiment: ITC; no binding detected under same conditions, 20 C; ITC: 20 mM HEPES pH 7.5, 150 mM NaCl, 5% glycerol, TCEP (printed 0.5 M), 20 C; 0.1 mM protein into 0.012-0.016 mM DNA

T1 sequence (A0AVK6 110-350): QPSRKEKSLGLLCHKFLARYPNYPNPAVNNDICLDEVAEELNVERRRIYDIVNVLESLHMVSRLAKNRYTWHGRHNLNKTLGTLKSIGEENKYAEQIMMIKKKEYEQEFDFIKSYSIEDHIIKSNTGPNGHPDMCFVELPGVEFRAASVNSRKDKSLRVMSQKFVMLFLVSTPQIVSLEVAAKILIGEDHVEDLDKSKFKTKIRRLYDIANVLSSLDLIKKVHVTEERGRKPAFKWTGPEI

| Binder | Kd (E2F8 DBD1-DBD2 [1]) [µM] | binding result (E2F8 DBD1-DBD2 [2]) |
| --- | --- | --- |
| B1 | ~0.26 |  |
| B2 |  | no binding |
